Key:
[1] = target: PorN, subunit of the purified PorKN ring (Porphyromonas gingivalis (endogenous in P. gingivalis)); test: cryo-EM structure; PorKN rings purified from P. gingivalis through the twin strep tag on PorK (Strep-Tactin, 0.5% Triton X-100); single and double rings; whole rings at 7.4 Å (single) and 5.6 Å (double) with 33-fold symmetry; focused refinement of a segment in C1 to 3.2 Å
[2] = target: PorK with a C-terminal twin strep tag (PorK-Strep), subunit of the purified PorKN ring (Porphyromonas gingivalis); test: as above

Row | Substance | stoichiometry N [1] | stoichiometry N [2]
1 | PorN, subunit of the purified PorKN ring (natural protein) | 33 | 
2 | PorK with a C-terminal twin strep tag (PorK-Strep), subunit of the purified PorKN ring (natural protein) |  | 33
